Patent publication US20140038900A1 (INSTITUT NATIONAL DE LA SANTE ET DE LA RECHERCHE MEDICALE …, published 2014)

Molecular target: heat-shock protein 70 (HSP70) (UniProt P0DMV8 1-641)
Experiment: co-immunoprecipitation and Western blot, HCT116 cells
Procedure: Transfected cells were first lysed in lysis buffer (50 mM Hepes (pH 7.6), 150 mM NaCl, 5 mM EDTA and 0.1% NP40) followed by immunoprecipitation using GFP-tag antibody. Immunoprecipitates were separated in a 10% SDS-polyacrylamide gel and then transferred to PVDF membranes using a wet transfer apparatus (BioRad, Hercules, Calif., USA). Membranes were first probed overnight using primary antibodies: HA-tag antibody was from Covance (Eurogentec, Angers, France), 14-3-3 from Santa-Cruz (TebuBio, Le Perray en Yvelines, France) and GFP-tag antibody from Millipore (Molsheim, France).

Sequence of heat-shock protein 70 (HSP70) (P0DMV8 whole entry): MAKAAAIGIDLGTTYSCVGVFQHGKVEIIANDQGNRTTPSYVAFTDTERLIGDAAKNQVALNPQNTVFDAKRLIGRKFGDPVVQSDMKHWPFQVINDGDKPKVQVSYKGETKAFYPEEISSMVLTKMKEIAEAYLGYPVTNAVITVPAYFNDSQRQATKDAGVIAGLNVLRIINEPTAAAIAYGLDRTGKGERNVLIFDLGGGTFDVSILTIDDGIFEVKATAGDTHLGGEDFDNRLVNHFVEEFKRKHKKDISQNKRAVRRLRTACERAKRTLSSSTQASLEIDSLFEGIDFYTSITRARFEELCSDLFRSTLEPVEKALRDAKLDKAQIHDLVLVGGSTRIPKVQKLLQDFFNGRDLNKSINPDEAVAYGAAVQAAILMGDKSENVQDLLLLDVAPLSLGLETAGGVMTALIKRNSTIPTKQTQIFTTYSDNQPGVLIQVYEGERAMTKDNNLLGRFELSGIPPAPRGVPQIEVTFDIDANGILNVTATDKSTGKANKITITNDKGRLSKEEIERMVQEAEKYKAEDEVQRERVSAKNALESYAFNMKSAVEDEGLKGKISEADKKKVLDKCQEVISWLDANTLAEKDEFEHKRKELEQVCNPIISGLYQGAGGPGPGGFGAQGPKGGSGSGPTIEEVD

B1: mutated HSP110 lacking exon 9 (HSP110delE9), GFP-tagged (other)
chain: MSVVGLDVGSQSCYIAVARAGGIETIANEFSDRCTPSVISFGSKNRTIGVAAKNQQITHANNTVSNFKRFHGRAFNDPFIQKEKENLSYDLVPLKNGGVGIKVMYMGEEHLFSVEQITAMLLTKLKETAENSLKKPVTDCVISVPSFFTDAERRSVLDAAQIVGLNCLRLMNDMTAVALNYGIYKQDLPSLDEKPRIVVFVDMGHSAFQVSACAFNKGKLKVLGTAFDPFLGGKNFDEKLVEHFCAEFKTKYKLDAKSKIRALLRLYQECEKLKKLMSSNSTDLPLNIECFMNDKDVSGKMNRSQFEELCAELLQKIEVPLYSLLEQTHLKVEDVSAVEIVGGATRIPAVKERIAKFFGKDISTTLNADEAVARGCALQC
notes: Made by PCR from the GFP-HSP110 vector and cloned into the EGFp C2 vector; also called HSP110deIE9; HSP110ΔE9; not shown: GFP tag from the EGFp C2 vector into which the mutant HSP110 cDNA was cloned
  binding result: no binding
